The target of experiment [1] is T1, Human Siglec-7 (human, UniProt Q9Y286 19-467).
T1 construct: Expressed on transfected CHO cells; also called huSiglec-7; CD328
The experiment in a line: flow cytometry, CHO transfectants. Background: In flow cytometry, cells or beads pass a laser one at a time.

Experiment [2] concerns the target T2, Human Siglec-9 (human, UniProt Q9Y336 18-463).
T2 construct: On transfected CHO cells; also on YTS and KHYG-1 transfectants, primary NK cells and moDC; also called huSiglec-9; CD329
Briefly: flow cytometry titration on untreated monocyte-derived dendritic cells (moDCs), goat F(ab')2 anti-human IgG (Fc) PE; table under the left panel. As for the experimental part:
(§1) Binding on moDCs and neuraminidase treated moDCs was tested in a titration experiment by flow cytometry. Cells were incubated 1h in Staining Buffer (SB) with primary antibodies at 10 ug/ml and a series of dilution of 1:10. They were washed two times with SB, then incubated 30 min with a Goat F(ab′)² Anti-Human IgG (Fc) PE (Jackson ImmunoResearch), and washed twice with SB.

The target in experiment [3] is T3, Human Siglec-9 mutant M10 (human, UniProt Q9Y336 18-463).
T3 construct: Expressed on HEK293T cells; also called Mutant 10
Briefly: flow cytometry, HEK293T transfectants.

Experiment [4] deals with T4, Human Siglec-9 mutant M7 (human, UniProt Q9Y336 18-463).
T4 construct: Expressed on HEK293T cells; also called Mutant 7
Briefly: flow cytometry, HEK293T transfectants.

The target of experiment [5] is T5, Human Siglec-9 mutant M9 (human, UniProt Q9Y336 18-463).
T5 construct: Expressed on HEK293T cells; also called Mutant 9
Briefly: flow cytometry, HEK293T transfectants.

For experiment [6], the target named is T6, Human Siglec-9 mutant M11 (human, UniProt Q9Y336 18-463).
T6 construct: Expressed on HEK293T cells; also called Mutant 11
Briefly: flow cytometry, HEK293T transfectants.

The target of experiment [7] is T2, Human Siglec-9. Briefly: flow cytometry on fresh purified human NK cells, mean of 4 donors. As for the experimental part:
Binding of antibodies on fresh purified human NK cells was tested by titration experiment by flow cytometry. Cells were incubated 1h in Staining Buffer (SB) with primary antibodies at 10 ug/ml and a series of dilution of 1:10. They were washed three times with SB, then incubated 30 min with a Goat F(ab′)² Anti-Human IgG (Fc) PE (Jackson ImmunoResearch). Stainings were acquired on a BD FACS Canto II and analyzed using the FlowJo software. EC₅₀ values are shown in the table below in μg/ml (calculated using a 4-parameter logistic fit).
Target sequence in this assay (Q9Y336 18-463): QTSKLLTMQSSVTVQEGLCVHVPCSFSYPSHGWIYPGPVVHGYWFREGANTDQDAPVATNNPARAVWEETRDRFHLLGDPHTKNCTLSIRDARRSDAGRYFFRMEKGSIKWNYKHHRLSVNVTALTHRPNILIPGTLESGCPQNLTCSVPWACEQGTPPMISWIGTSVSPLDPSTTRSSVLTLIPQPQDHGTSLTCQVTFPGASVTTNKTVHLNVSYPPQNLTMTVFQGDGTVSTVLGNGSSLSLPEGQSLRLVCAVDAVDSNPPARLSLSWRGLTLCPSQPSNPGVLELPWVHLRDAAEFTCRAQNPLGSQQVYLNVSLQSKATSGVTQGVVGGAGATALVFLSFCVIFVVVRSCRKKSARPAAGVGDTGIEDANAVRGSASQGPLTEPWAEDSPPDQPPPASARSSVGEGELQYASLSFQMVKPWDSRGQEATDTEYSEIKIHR

Experiment [8] addresses T2, Human Siglec-9. Briefly: flow cytometry titration on neuraminidase-treated moDCs, goat F(ab')2 anti-human IgG (Fc) PE; table under the right panel. How it is done: moDC were desialylated for 2 hours with 25 mU neuraminidase (Roche Diagnostics).
as §1

For experiment [9], the target named is T5, Human Siglec-9 mutant M9. The experiment in a line: flow cytometry, HEK293T transfectants; '-' indicates full loss of binding.
Target sequence in this assay (Q9Y336 other isoform, or with tags, fused parts or gaps mutant): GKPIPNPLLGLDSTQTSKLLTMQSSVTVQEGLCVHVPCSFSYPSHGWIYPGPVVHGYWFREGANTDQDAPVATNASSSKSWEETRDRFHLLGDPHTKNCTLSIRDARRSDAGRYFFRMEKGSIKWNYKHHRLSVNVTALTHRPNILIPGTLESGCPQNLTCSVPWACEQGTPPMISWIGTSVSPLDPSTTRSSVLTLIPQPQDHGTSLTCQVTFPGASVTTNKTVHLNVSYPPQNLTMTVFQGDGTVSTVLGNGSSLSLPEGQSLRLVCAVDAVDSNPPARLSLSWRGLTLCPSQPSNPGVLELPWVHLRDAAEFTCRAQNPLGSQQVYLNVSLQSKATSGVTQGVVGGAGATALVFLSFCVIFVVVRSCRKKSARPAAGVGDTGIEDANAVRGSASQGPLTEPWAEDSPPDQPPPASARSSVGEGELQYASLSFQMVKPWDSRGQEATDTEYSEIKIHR
For experiment [10], the target named is T6, Human Siglec-9 mutant M11. The description is as above.
Experiment [11] concerns the target T7, Human Siglec-9 mutant M8 (human, UniProt Q9Y336 18-463).
T7 construct: Expressed on HEK293T cells; also called Mutant 8
Briefly: flow cytometry, HEK293T transfectants.

Experiment [12] deals with T8, Cynomolgus Siglec (cynomolgus).
T8 construct: Expressed on transfected CHO cells; also called Siglec-Cyno; cynoSiglec
Briefly: flow cytometry, CHO transfectants. As for the experimental part: (§2) Binding of antibodies on human Siglec-7, human Siglec-9 and Cynomolgus Siglec-9 was tested by titration experiment by flow cytometry on CHO cells transfected with human Siglec-7 and human Siglec-9 and Cynomolgus Siglec-9. Cells were incubated 1h in Staining Buffer (SB) with primary antibodies at 20 ug/ml and a series of dilution of 1:5. They were washed three times with SB, then incubated 30 min with a goat F(ab′)² Anti-human IgG (Fc) PE (Beckman Coulter #1M05510), and washed twice with SB.

Experiment [13] addresses T2, Human Siglec-9. The experiment in a line: flow cytometry, CHO transfectants. As for the experimental part: as §2
Target sequence in this assay (Q9Y336 18-463): as the sequence (Q9Y336 18-463) above
Experiment [14] deals with T1, Human Siglec-7. Briefly: flow cytometry, CHO transfectants. How it is done:
as §2
This is another data set of the same source.

In experiment [15] the target is T9, Siglec-9 Fc protein (human).
T9 construct: Produced in CHO cells; also called human Siglec-9 Fc
The experiment in a line: ELISA, blocking: Siglec-9 Fc captured on protein A, mAb dilution series, then biotinylated polymer Sia1 (Neu5Aca2-3Galb1-4GlcNAcb-PAA-biotin), streptavidin-peroxidase (top panel). As for the experimental part:
Blocking of the interaction between Siglec-7 and -9 and sialylated ligands by anti Siglec-7/9 antibodies was tested on ELISA assays. Siglec proteins were Siglec-7 human Fc and Siglec-9 Human Fc recombinant proteins, and ligands were biotinylated polymers with sialylated trisaccharides (Neu5Aca2-3Galb1-4GcNAcb-PAA-biotin Glycotech #01-077 referred to as “Sia1” and 6′-Sialyllactose-PAA-biotin Glycotech #01-039 (referred to as “Sia2”). Briefly, Protein A was coated on ELISA plates over night at 4° C. After 3 washes and saturation, Siglec-7 Fc and Siglec-9 Fc were added at 0.8 μg/well at RT for 1H30. After 3 washes, mAbs were added at 20 ug/ml and a series of dilution of 1:5. After 3 washes, biotinylated sialylated polymers were added for 3 hours at room temperature. After 3 washes, Streptavidin-Peroxidase (Beckman) was added at 1:1000. […] The absorbance was read at 450 nm.

Numbering of substitutions follows the chain as printed.

T4 sequence (Q9Y336 other isoform, or with tags, fused parts or gaps mutant): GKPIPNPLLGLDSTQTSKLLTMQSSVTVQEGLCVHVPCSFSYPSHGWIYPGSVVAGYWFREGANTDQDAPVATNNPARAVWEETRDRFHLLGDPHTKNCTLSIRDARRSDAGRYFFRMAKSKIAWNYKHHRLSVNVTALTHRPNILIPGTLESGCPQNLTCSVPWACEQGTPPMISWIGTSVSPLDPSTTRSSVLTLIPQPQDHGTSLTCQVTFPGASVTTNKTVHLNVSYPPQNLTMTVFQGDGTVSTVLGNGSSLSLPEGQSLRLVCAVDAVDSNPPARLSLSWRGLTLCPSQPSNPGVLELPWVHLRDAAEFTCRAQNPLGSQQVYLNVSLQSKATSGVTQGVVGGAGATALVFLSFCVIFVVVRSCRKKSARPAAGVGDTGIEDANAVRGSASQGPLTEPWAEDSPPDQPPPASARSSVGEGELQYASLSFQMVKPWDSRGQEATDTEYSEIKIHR
T3 sequence (Q9Y336 other isoform, or with tags, fused parts or gaps mutant): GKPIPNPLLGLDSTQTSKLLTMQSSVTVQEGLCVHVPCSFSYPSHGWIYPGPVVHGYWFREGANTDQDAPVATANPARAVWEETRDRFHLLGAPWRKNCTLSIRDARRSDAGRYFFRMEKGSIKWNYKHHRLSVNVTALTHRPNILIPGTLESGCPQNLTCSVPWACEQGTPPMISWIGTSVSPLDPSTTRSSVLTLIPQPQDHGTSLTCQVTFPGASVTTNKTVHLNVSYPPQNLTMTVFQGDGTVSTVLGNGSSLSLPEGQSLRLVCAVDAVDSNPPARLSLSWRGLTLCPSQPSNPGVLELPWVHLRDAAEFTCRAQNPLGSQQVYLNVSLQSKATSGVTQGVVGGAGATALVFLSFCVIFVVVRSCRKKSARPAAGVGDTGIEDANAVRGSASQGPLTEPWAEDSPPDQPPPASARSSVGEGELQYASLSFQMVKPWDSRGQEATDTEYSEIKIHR
T7 sequence (Q9Y336 other isoform, or with tags, fused parts or gaps mutant): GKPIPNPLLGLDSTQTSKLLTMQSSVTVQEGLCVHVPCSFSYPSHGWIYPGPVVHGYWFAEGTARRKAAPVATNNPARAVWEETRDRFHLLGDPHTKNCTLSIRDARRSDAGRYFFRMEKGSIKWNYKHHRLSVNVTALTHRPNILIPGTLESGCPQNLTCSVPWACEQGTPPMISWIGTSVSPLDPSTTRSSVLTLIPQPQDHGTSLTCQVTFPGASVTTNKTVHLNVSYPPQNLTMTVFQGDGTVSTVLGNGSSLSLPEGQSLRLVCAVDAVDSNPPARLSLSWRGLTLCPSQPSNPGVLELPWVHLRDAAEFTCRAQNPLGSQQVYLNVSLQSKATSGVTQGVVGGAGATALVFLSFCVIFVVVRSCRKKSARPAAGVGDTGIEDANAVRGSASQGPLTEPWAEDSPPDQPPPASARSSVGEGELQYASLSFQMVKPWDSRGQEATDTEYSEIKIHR
T6 sequence (Q9Y336 other isoform, or with tags, fused parts or gaps mutant): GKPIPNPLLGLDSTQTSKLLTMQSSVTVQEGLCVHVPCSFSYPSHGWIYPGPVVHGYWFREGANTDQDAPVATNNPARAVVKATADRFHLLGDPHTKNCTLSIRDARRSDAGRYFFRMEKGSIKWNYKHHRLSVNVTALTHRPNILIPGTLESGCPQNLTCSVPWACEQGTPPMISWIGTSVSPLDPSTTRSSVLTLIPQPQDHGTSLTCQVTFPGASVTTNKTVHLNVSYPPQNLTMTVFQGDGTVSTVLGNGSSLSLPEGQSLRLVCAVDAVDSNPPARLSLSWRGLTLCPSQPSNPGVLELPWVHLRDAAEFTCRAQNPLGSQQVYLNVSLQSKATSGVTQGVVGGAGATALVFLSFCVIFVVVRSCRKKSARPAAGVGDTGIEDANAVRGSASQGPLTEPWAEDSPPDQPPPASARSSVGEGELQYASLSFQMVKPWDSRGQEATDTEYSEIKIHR
T1 sequence (Q9Y286 19-467): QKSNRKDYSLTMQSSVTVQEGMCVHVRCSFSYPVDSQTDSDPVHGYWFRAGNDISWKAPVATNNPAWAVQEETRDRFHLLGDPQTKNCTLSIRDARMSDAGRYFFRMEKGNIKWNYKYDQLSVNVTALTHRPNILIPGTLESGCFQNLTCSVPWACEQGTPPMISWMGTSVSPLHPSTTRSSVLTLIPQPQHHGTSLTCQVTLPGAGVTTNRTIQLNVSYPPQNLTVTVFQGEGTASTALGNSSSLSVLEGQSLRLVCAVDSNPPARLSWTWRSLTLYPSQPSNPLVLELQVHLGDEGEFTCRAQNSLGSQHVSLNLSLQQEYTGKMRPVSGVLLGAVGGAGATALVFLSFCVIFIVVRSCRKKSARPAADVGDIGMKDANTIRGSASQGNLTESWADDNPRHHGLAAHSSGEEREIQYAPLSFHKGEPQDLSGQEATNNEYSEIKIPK
T8 sequence (chain, as listed by the source limits assumed): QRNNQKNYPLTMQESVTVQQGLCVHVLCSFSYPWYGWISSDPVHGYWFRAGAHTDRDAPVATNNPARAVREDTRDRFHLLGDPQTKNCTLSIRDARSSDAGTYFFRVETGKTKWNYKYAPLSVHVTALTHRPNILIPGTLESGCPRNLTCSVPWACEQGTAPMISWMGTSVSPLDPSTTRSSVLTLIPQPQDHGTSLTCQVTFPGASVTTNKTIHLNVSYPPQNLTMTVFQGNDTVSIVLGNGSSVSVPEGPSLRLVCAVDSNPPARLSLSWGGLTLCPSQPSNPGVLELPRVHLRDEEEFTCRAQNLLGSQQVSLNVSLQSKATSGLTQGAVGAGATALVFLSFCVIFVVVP
T9 sequence (chain, as listed by the source limits assumed): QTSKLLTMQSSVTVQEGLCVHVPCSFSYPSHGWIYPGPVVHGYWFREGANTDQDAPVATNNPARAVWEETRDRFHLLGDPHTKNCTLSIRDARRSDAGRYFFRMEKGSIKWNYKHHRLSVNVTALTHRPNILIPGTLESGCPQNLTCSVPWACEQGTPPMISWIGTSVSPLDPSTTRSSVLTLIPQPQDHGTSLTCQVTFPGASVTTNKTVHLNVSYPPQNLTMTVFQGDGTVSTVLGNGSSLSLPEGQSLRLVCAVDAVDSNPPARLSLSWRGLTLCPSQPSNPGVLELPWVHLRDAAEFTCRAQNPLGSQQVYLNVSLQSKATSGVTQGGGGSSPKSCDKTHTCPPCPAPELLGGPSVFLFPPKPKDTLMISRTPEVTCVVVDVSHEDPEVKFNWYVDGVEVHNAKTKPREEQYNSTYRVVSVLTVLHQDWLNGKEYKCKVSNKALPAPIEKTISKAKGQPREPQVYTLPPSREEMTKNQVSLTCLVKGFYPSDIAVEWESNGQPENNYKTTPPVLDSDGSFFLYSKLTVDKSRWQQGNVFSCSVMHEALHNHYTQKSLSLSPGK

B1: mAbC (antibody, human IgG1, V domains shown)
VH: QIQLVQSGPELKKPGETVKISCKASGYTFTNYEMNWVKEAPGKGLKWMGWINTYTGESTYADDFKGRFAFSLETSASTVYLQINNLKDEDVATYFCVRDDYGRSYGFAYWGQGTLVTVSA
VL: NIVLTQSPASLTVSLGQRANISCRASESVDSYGNSFMHWYQQKPGQPPKLLIYLASKLESGVPARFSGSGSRTDFTLTIDPVETDDAATYYCHQNNEDPPWTFGGGTKLEIK
B1: the binding result in experiment [1] is “no binding”; in experiment [3], “binds”; in experiment [4], “binds”; in [5] it was “binds”; in [6] it was “binds”. Besides, the 50% effective concentration (EC50) (in general, the concentration at which the effect is half-maximal) was found to be 0.196 µg/mL in experiment [2], 0.09 µg/mL in experiment [7] and 0.0274 µg/mL in experiment [8].

B2: mAbF (antibody, human IgG1, V domains shown)
VH: QVQLQQSGPEVVRPGVSVKISCKGSGYTFTDYSMHWVKQSHAKSLEWIGVISTYNGNTNYNQKFKGKATMTVDKSSSTAYMELARLTSEDSAIYYCARRGYYGSSSWFGYWGQGTLVTVSA
VL: DIVMTQSQKFMSTSVGDRVSVTCKASQNVGTDVAWYQQKPGQSPEALIYSASYRYSGVPDRFTGSGSGADFTLTISNVQSEDLAEYFCQQYNSFPYTFGGGTKLEIK
With B2, the binding result in [1] is reported as “no binding”; in experiment [9], “no binding”; in [10], “no binding”; in experiment [4] it was “binds”. Moreover, in [7], it took 0.3 µg/mL to reach a half-maximal effect (EC50).

B3: mAbD (antibody, human IgG1, V domains shown)
VH: QIQLVQSGPELKKPGETVKISCKASGYTFTDYSMHWVKQAPGKGLKWMGWIITETGEPTYADDFRGRFAFSLETSANTAYLQINNLKNEDTATYFCARDFDGYWGQGTTLTVSS
VL: DILMTQSPASLSASVGETVTITCRASENIYSYLAWYQQKRGKSPQFLVYNAKTLTEGVPSRFRGSGSGTQFSLKINSLQPEDFGTYYCQHHYGFPWTFGGGTKLEIK
For B3, the binding result in [1] is recorded as “no binding”; in [3], “binds”; in experiment [11], “binds”; in experiment [5], “binds”; in experiment [6], “binds”. The figures for the EC50 in [2] and in [8] were 2.47 µg/mL and 0.0925 µg/mL, respectively.

B4: mAbE (antibody, human IgG1, V domains shown)
VH: DVQLVESGGGLVQPGGSRKLSCAASGFTFSTFGMHWVRQAPEKGLEWVAYISSGSNAIYYADTVKGRFTISRDNPKNTLFLQMTSLRSEDTAMYYCASPGYGAWFAYWGQGTLVTVSA
VL: ENVLTQSPAIMSASPGEKVTMTCRASSSVSSAYLHWYQQKSGASPKLWIYSTSNLASGVPARFSGSGSGTSYSLTISSVEAEDAATYYCQQYSAYPYTFGGGTKLEIK
Turning to B4, the binding result in [1] is reported as “no binding”; in [9] it was “no binding”; in experiment [10] it was “no binding”; in experiment [4], “binds”. In experiment [7], this molecule came in with a half-maximal effective concentration (EC50) of 0.01 µg/mL.

B5: mAbA (antibody, human IgG1, V domains shown)
VH: QVQLQQPGAELVKPGSPVKLSCKASYFTFTSYWMHWVRQRPGQGLEWIGEINPSNGHTNYNEKFESKATLTVDRSSSTAYMQLSSLTSEDSAVFYCANGVESYDFDDALDYWGQGTSVTVSS
VL: DIQMTQTTSSLSASLGDRVTISCRASQDINNYLNWYQQKPDGTIKLLIYYTSRLHSGVPSRFSGSGSGTDYSLTINNLEQEDIATYFCQQGNTLPFTFGGGTKLEIK
As for B5, the binding result in [1] is “no binding”; in [3], “binds”; in experiment [11], “binds”; in [4] it was “binds”; in [5] it was “binds”; in [6] it was “binds”. Further, the EC50 was 0.232 µg/mL in experiment [2], 0.08 µg/mL in experiment [7] and 0.0282 µg/mL in [8].

B6: mAbB (antibody, human IgG1, V domains shown)
VH: QVQLQQPGAELVKPGASVKLSCKASVYTFTSYWMHWVKQRPGQGLEWIGEINPSNGHTNYNEKFKTKAKLTVDKSSSTAYMQLSSLTSEDSAVYFCANGVETYDFDDAMDYWGQGTSVTVSS
VL: B5 VL with I44V, Y50F, N76S, N92D, L94F
Turning to B6, the binding result in experiment [1] was “no binding”; in experiment [3] it was “binds”; in experiment [11] it was “binds”; in experiment [4], “binds”; in experiment [5] it was “binds”; in [6], “binds”. The same molecule registered an EC50 in experiment [7] of 0.1 µg/mL.

B7: mAb2 (antibody, human IgG1, V domains shown)
VH: EVQLQESGPGLVKPSQSLSLTCTVTGYSITGGFAWNWIRQFPGNTLEWMGYIGYGGSTSYNPSLNSRISITRDTSKNHFFLQFNSVTTEDSATYYCARGDYLFAYWGQGTLVTVSA
VL: DIVMTQSHKFMSTSVGDRVSITCKASQDVNTAVAWYQQKPGQSPKLLIYSASYRYTGVPDRFTGSGSGTDFTFTISSVQAEDLAVYYCQQHYSTPRTFGGGTKLEIK
B7: the binding result was “no binding” in experiment [9], “no binding” in experiment [10], “binds” in [11] and “binds” in experiment [4]. Further, the EC50 was determined as 0.53 µg/mL in experiment [12], 0.08 µg/mL in [13] and 0.17 µg/mL in experiment [14].

B8: mAb3 (antibody, human IgG1, V domains shown)
VH: B7 VH with Q5L, S7T
VL: DILMTQSPASLSASVGETVSITCRASGNIHNYLAWYLQRQGKSPQLLVYNAKTLADGVPSRFSGTGSGTQFSLKINSLQPEDFGSYYCQHFWSTPRTFGGGTKLEIK
On to B8, for which the binding result is “no binding” in experiment [9]; “no binding” in experiment [10]; “binds” in experiment [11]; “binds” in experiment [4]; “binds” in experiment [15]. Also, the half-maximal effective concentration (EC50) in [12] amounted to 0.85 µg/mL; in [13], 0.23 µg/mL; in [14], 0.22 µg/mL.

The values above are taken from patent US20200369765A1 (INNATE PHARMA, published 2020).
